The record followed here is patent US12214046B2, “Protein-loaded PLGA nanospheres” (West Virginia University Board of Governors on behalf of …, priority 2019, dated 2025).

This data set in a line: In vivo induction of free IL-12 toxicity in healthy mice (blood immunophenotyping by flow cytometry). Also noted: species or system BALB/c mice. The settings on record: 100 ng or 100 ug retro-orbital, baseline vs 48 h. As to the method: Red blood cells were lysed with Red Blood Cell (RBC) Lysis Solution (Miltenyi Biotec, Auburn, CA). Single cell suspensions were split and incubated with optimized lymphoid (L) and myeloid (M) antibody panels according to the manufacturer's instructions: a minimum of 1×104 events were analyzed for each sample.
Two groups of four BALB/c mice (two female and two male per group) were cheek bled by piercing the facial venous plexus with a sterile 4 mm Goldenrod Animal Lancet (Braintree Scientific. Braintree. MA) to gather 100 μL whole blood for baseline immunophenotyping. Immediately following cheek bleeds, each group was given a retro-orbital (r.o.) injection of either a low (100 ng) or high (100 ug) dose of free recombinant mouse (rm) IL-12 (eBiolegend. San Diego. CA) with 0.1% mouse serum albumin (MSA. Sigma. St. Louis, MO) in 150 μL DPBS. At 24 and 48 hours following r.o. injections, mice underwent additional cheek bleeds for immunophenotyping.
Twelve BALB/c mice were cheek bled for 100 μL whole blood (baseline) before being dosed with either 100 ng (L: low dose) or 100 ug (H: high dose) of recombinant mouse (rm) IL-12 via retro-orbital (r.o.) injection. Mice were cheek bled again at 24 and 48 hours (48 h), and blood samples were immunophenotyped via flow cytometry. CD8^−CD4^+ helper T cells (left, white). CD4^−CD8^+ cytotoxic T cells (middle, gray), and CD8^−CD4^+FOXP3^+CD25^+/− regulatory T cells (right. black) were assessed for the extent of PD1^+TIM-3^+ positivity, which can be indicative of exhaustion. Shown in FIG. 17 are T cell data from baseline and 48 h time points. Individual bars (top half) represent group averages+SD. […] Baseline blood samples (n=4:2 male and 2 female per group) were compared to 48 h samples using unpaired two-tailed/tests, * p<0.05, ** p<0.01. *** p<0.001.
Twelve BALB/c mice were cheek bled for 100 μL whole blood (baseline) before being dosed with either 100 ng (L: low dose) or 100 ug (H: high dose) of recombinant mouse (rm) IL-12 via retro-orbital (r.o.) injection. […]
Background: Flow cytometry measures light scatter and fluorescence of single cells or particles in a stream.

B1: IL-12: Recombinant mouse IL-12 (p70), immunostimulatory cytokine, purchased from Biolegend (protein, UniProt P43431 23-215; P43432 23-335, looked up)
Interleukin-12 subunit alpha: RVIPVSGPARCLSQSRNLLKTTDDMVKTAREKLKHYSCTAEDIDHEDITRDQTSTLKTCLPLELHKNESCLATRETSSTTRGSCLPPQKTSLMMTLCLGSIYEDLKMYQTEFQAINAALQNHNHQQIILDKGMLVAIDELMQSLNHNGETLRQKPPVGEADPYRVKMKLCILLHAFSTRVVTINRVMGYLSSA
Interleukin-12 subunit beta: MWELEKDVYVVEVDWTPDAPGETVNLTCDTPEEDDITWTSDQRHGVIGSGKTLTITVKEFLDAGQYTCHKGGETLSHSHLLLHKKENGIWSTEILKNFKNKTFLKCEAPNYSGRFTCSWLVQRNMDLKFNIKSSSSSPDSRAVTCGMASLSAEKVTLDQRDYEKYSVSCQEDVTCPTAEETLPIELALEARQQNKYENYSTSFFIRDIIKPDPPKNLQMKPLKNSQVEVSWEYPDSWSTPHSYFSLKFFVRIQRKKEKMKETEEGCNQKGAFLVEKTSTEVQCKGGNVCVQAQDRYYNSSCSKWACVPCRVRS
As to B1, the “effect on PMN-MDSC in peripheral blood” value was “Polymorphonuclear-Myeloid-Derived Suppressor Cell (PMN-MDSC) Myelocytosis”; the “effect on T lymphocyte subsets in peripheral blood (PD1+TIM-3+ positivity)” value was “T cell exhaustion of helper, cytotoxic, and regulatory T lymphocyte subsets”; the “effect on circulating Natural Killer (NK) cells” value was “Decrease of Circulating Natural Killer (NK) Cells”.
